Assay results from patent EP4772193A1 (Teijin Pharma Limited, dated 2026).
Read-outs that look alike come from different tables or passages of the source.

T1: human gpNMB (Human Osteoactivin, His-tag, AcroBioSystems) (human, UniProt Q14956-2 23-486, limits assumed)
T1 sequence (looked up): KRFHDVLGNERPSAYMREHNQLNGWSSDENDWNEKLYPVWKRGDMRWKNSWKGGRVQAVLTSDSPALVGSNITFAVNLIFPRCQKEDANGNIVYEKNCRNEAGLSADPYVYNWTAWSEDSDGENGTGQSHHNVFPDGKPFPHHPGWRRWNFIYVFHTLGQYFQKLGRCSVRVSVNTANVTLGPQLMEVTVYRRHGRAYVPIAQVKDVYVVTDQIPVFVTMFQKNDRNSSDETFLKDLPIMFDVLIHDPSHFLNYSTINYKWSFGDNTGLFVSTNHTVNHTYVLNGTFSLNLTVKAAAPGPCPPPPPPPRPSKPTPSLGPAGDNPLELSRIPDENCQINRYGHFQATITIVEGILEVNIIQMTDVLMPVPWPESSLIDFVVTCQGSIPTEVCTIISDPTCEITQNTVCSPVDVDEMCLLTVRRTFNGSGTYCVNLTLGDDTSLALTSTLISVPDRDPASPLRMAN

T2: recombinant human soluble gpNMB (recombinant human gpNMB-FLAG-His) (human, UniProt Q14956 23-498)
T2 sequence: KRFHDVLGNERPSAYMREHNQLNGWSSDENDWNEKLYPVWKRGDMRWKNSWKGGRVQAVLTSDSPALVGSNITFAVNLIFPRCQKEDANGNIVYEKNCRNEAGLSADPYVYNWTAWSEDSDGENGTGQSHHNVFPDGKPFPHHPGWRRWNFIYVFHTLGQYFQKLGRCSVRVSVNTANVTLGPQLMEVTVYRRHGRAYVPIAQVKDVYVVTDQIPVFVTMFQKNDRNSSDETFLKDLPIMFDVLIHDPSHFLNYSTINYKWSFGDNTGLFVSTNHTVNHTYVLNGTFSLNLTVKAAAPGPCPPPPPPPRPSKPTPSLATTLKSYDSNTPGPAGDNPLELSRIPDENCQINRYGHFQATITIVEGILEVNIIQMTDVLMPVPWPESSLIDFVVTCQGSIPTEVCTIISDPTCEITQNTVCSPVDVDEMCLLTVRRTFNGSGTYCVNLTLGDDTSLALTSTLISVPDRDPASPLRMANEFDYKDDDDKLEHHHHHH

T3: recombinant mouse soluble gpNMB (recombinant mouse gpNMB-FLAG-His) (mouse, UniProt Q99P91 23-502)
T3 sequence: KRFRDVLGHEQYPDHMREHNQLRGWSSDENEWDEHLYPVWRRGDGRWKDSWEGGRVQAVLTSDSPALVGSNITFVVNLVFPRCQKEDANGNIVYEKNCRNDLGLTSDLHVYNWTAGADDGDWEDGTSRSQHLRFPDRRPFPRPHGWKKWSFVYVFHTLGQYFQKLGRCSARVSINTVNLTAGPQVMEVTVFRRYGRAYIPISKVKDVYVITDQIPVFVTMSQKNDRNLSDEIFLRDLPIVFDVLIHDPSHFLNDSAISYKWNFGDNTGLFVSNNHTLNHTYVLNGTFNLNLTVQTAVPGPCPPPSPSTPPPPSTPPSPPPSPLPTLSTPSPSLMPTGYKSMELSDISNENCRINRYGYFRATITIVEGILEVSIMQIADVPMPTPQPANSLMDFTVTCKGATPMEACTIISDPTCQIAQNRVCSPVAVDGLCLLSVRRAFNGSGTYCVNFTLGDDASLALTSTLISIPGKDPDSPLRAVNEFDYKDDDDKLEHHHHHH


Assays:
[1] = biological target: T1, human gpNMB (Human Osteoactivin, …); test: SPR Biacore 8K, antibody captured on protein A, gpNMB as analyte
[2] = biological target: T2, recombinant human soluble gpNMB …; test: SPR single-cycle kinetics, antibody over captured gpNMB-FLAG-His, 36C, mean of 2
[3] = biological target: T3, recombinant mouse soluble gpNMB …; test: as above
[4] = biological target: T2, recombinant human soluble gpNMB …; test: antigen ELISA
[5] = biological target: T2, recombinant human soluble gpNMB …; test: SPR, antibody over captured gpNMB-FLAG-His, 1:1 model
[6] = biological target: T2, recombinant human soluble gpNMB …; test: antigen ELISA, vs hGPN06-1_H1L1
[7] = biological target: T2, recombinant human soluble gpNMB …; test: antigen ELISA, vs hGPN06-1_H1L1; remark: listed apart in the source
[8] = biological target: T2, recombinant human soluble gpNMB …; test: antigen ELISA; remark: listed apart in the source
[9] = biological target: T2, recombinant human soluble gpNMB …; test: antigen ELISA, vs hGPN06-1_H1L1; remark: listed apart in the source
[10] = biological target: T2, recombinant human soluble gpNMB …; test: antigen ELISA; remark: listed apart in the source
[11] = biological target: T2, recombinant human soluble gpNMB …; test: antigen ELISA; remark: listed apart in the source
[12] = biological target: T2, recombinant human soluble gpNMB …; test: antigen ELISA; remark: listed apart in the source
[13] = biological target: T2, recombinant human soluble gpNMB …; test: antigen ELISA; remark: listed apart in the source
[14] = biological target: T2, recombinant human soluble gpNMB …; test: antigen ELISA, vs hGPN18-2_H2L3
[15] = biological target: T2, recombinant human soluble gpNMB …; test: SPR, antibody 100 nM over captured gpNMB-FLAG-His, 36C
[16] = biological target: T2, recombinant human soluble gpNMB …; test: antigen ELISA; remark: listed apart in the source
[17] = biological target: T2, recombinant human soluble gpNMB …; test: antigen ELISA, vs hGPN18-2_H2L3; remark: listed apart in the source
[18] = biological target: T2, recombinant human soluble gpNMB …; test: antigen ELISA, vs hGPN18-2_H2L3; remark: listed apart in the source
[19] = biological target: T2, recombinant human soluble gpNMB …; test: antigen ELISA; remark: listed apart in the source

Row | Binder | Kd [1] | koff [1] | kon [1] | Kd [2] | koff [2] | kon [2] | Kd [3] | koff [3] | kon [3] | also measured
1 | hGPN18-5_H0L0 (antibody, V domains shown, chimeric antibody with mouse GPN18-5 variable regions (VH0, VL0); also called hGPN18-5_VH0+VL0; HGPN18-5_VH0+VL0) VH: QVQLQQSGAELAKPGTSVKMSCKASGYTFTTYWMNWVKQRPGQDLEWIGAINPSNDYTEYNQKFKDKAILTADKSSNTAYMQLSSLTSEDSAVYYCGRSYSPDYWGQGTTLTVSS VL: DIVMTQSQKFMSTSVGDRVSVTCKASQNVDNHVAWHQQKPGQSPKALIYSASYRYSGVPDRFTGSGSGTDFTLTIRDVQSEDLADYFCQQYKSYPFTFGSGTELEIK | 237 nM | 0.002 s⁻¹ | 8440 M⁻¹ s⁻¹ | 3.08 nM | 0.000727 s⁻¹ | 237000 M⁻¹ s⁻¹ | 5.31 nM | 0.00075 s⁻¹ | 142000 M⁻¹ s⁻¹ | –
2 | hGPN06-1_H0L0 (antibody, V domains shown, human chimeric antibody: mouse GPN06-1 variable regions (VH0, VL0); also called human chimeric antibody of GPN06-1) VH: QVQLQQPGAEIVRPGASVKLSCKASGYTFTDNWMGWVKQRPGQGLEWIGAIDPSDSFTNYNQNFKGKATLTVDTSSSTAYMQLSSLTSEDSAVYFCTRSGYYGSPKLGGDYWGQGTTLTVSS VL: QIVLTQSPAIMSASLGEEITLTCSASSSISYMHWYQQKSGTSPKLLIYSTSNLASGVPSRFSGSGSGTFYSLTISSVEAEDAADYYCHQWNSYPCTFGGGTKLEIK | – | – | – | – | – | – | – | – | – | EC50 [4]: 0.383 nM; Kd [5]: 0.265 nM; koff [5]: 0.000209 s⁻¹; kon [5]: 789000 M⁻¹ s⁻¹
3 | hGPN06-1_H1L1 (antibody, V domains shown, humanized; also called humanized anti-gpNMB antibody H1L1) VH: QVQLVQSGAEVKKPGASVKVSCKASGYTFTDNWMGWVKQRPGQGLEWIGAIDPSDSFTNYNQNFKGRVTMTVDTSISTAYMELSRLRSDDSAVYFCTRSGYYGSPKLGGDYWGQGTLVTVSS VL: EIVLTQSPSSLSASVGDRVTITCSASSSISYMHWYQQKSGTAPKLLIYSTSNLASGVPSRFSGSGSGTDFTFTISSLQPEDAATYYCHQWNSYPCTFGGGTKLEIK | – | – | – | – | – | – | – | – | – | Relative binding activity [6]: 1; Relative binding activity [7]: 1; EC50 [8]: 1.98 nM; Relative binding activity [9]: 1; EC50 [4]: 0.575 nM; Kd [5]: 0.62 nM; koff [5]: 0.000567 s⁻¹; kon [5]: 916000 M⁻¹ s⁻¹; EC50 [10]: 1.98 nM; EC50 [11]: 1.98 nM
4 | hGPN18-2_H2L3 (antibody, V domains shown, humanized; also called humanized anti-gpNMB antibody H2L3) VH: QVQLVQSGPGLVQPTQTLTLTCSFSGFSLSTSVMGVGWIRQPSGKGLEWLADIWWDDDKDYNPSLKSRLTISKDTSKNQVVLTMTNMDTVDTATYYCARTYYSNYEYYGMDYWGQGTLVTVSS VL: DIVMTQSPDSLAVSLGERATINCRSSQTIILSNGNTYLEWYQQKPGQPPKLLIYKVSNRFSGVPDRFSGSGSGTDFTLTISSLQAEDVAVYYCFQGSHVPFTFGSGTKLEIKR | – | – | – | – | – | – | – | – | – | EC50 [12]: 4.39 nM; EC50 [13]: 4.39 nM; Relative binding activity [14]: 1; Kd [15]: 7.78 pM; koff [15]: 7.49e-07 s⁻¹; kon [15]: 96200 M⁻¹ s⁻¹; EC50 [16]: 1.84 nM; Relative binding activity [17]: 1; Relative binding activity [18]: 1; EC50 [19]: 4.39 nM
5 | hGPN18-5_H3L1 (antibody, V domains shown, humanized; also called hGPN18-5 VH3+VL1) VH: QVQLVQSGAEVKKPGASVKVSCKASGYTFTTYWMNWVRQAPGQGLEWIGAINPSNDYTEYNQKFKDRAIMTADKSTSTVYMELSSLRSEDTAVYYCGRSYSPDYWGQGTTVTVSS VL: DIQMTQSPSSLSASVGDRVTITCKASQNVDNHVAWFQQKPGKAPKALIYSASYRYSGVPSRFSGSGSGTDFTLTISSLQPEDFATYFCQQYKSYPFTFGGGTKLEIK | 711 nM | 0.00484 s⁻¹ | 6810 M⁻¹ s⁻¹ | 11.3 nM | 0.00138 s⁻¹ | 142000 M⁻¹ s⁻¹ | 17.8 nM | 0.000862 s⁻¹ | 52900 M⁻¹ s⁻¹ | –
6 | hGPN18-5_H3L3 (antibody, V domains shown, humanized; also called hGPN18-5_VH3+VL3) VH: QVQLVQSGAEVKKPGASVKVSCKASGYTFTTYWMNWVRQAPGQGLEWIGAINPSNDYTEYNQKFKDRAIMTADKSTSTVYMELSSLRSEDTAVYYCGRSYSPDYWGQGTTVTVSS VL: DIQMTQSPSSLSASVGDRVTITCKASQNVDNHVAWHQQKPGKAPKALIYSASYRYSGVPDRFTGSGSGTDFTLTISSLQPEDFADYFCQQYKSYPFTFGGGTKLEIK | 352 nM | 0.00201 s⁻¹ | 5720 M⁻¹ s⁻¹ | 6.98 nM | 0.00121 s⁻¹ | 176000 M⁻¹ s⁻¹ | 6.39 nM | 0.000711 s⁻¹ | 111000 M⁻¹ s⁻¹ | –
7 | hGPN18-5_H1L1 (antibody, V domains shown, humanized; also called hGPN18-5_VH1+VL1) VH: QVQLVQSGAEVKKPGASVKVSCKASGYTFTTYWMNWVRQAPGQGLEWIGAINPSNDYTEYNQKFKDRVTMTADTSTSTVYMELSSLRSEDTAVYYCGRSYSPDYWGQGTTVTVSS VL: DIQMTQSPSSLSASVGDRVTITCKASQNVDNHVAWFQQKPGKAPKALIYSASYRYSGVPSRFSGSGSGTDFTLTISSLQPEDFATYFCQQYKSYPFTFGGGTKLEIK | 651 nM | 0.00432 s⁻¹ | 6640 M⁻¹ s⁻¹ | 16.2 nM | 0.00307 s⁻¹ | 308000 M⁻¹ s⁻¹ | 21.9 nM | 0.00143 s⁻¹ | 73800 M⁻¹ s⁻¹ | –
8 | hGPN18-2_H0L0 (antibody, V domains shown, human chimeric antibody: mouse GPN18-2 variable regions; also called human chimeric antibody of GPN18-2) VH: QVTLKESGPGILQPSQTLSLTCSFSGFSLSTSVMGVGWIRQPSGKGLEWLADIWWDDDKDYNPSLKSRLTISKDTSKNQVFLKIASVDTADTATYYCARTYYSNYEYYGMDYWGQGTSVTVSS VL: DVLMTQTPLSLPVSLGDQASISCRSSQTIILSNGNTYLEWYLQKPGQSPKLLIYKVSNRFSGVPDRFSGSGSGTDFTLKISRVEAEDLGVYYCFQGSHVPFTFGSGTKLEIK | – | – | – | – | – | – | – | – | – | Kd [15]: 3.46 pM; koff [15]: 4.71e-07 s⁻¹; kon [15]: 141000 M⁻¹ s⁻¹; EC50 [16]: 1.21 nM
